Blank lines part the entries; values can stand above or below the binder they belong to.
Columns and labels:
Assay in all cases: alanine scan, flow cytometry, HEK293-T;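 also: antibody binding to each alanine-substituted CD33 mutant expressed transiently in HEK293-T, read as fluorescence minus background, mean of duplicates, relative to wild-type CD33 set as 100%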
human CD33 F177A = human CD33 F177A (human, UniProt P20138 18-364)
human CD33 P203A = human CD33 P203A (human, UniProt P20138 18-364)
human CD33 Q236A = human CD33 Q236A (human, UniProt P20138 18-364)
human CD33 V196A = human CD33 V196A (human, UniProt P20138 18-364)
human CD33 I199A = human CD33 I199A (human, UniProt P20138 18-364)
human CD33 G172A = human CD33 G172A (human, UniProt P20138 18-364)
human CD33 Q204A = human CD33 Q204A (human, UniProt P20138 18-364)
human CD33 W179A = human CD33 W179A (human, UniProt P20138 18-364)
human CD33 T240A = human CD33 T240A (human, UniProt P20138 18-364)
human CD33 S181A = human CD33 S181A (human, UniProt P20138 18-364)
human CD33 T211A = human CD33 T211A (human, UniProt P20138 18-364)
human CD33 T223A = human CD33 T223A (human, UniProt P20138 18-364)
human CD33 E224A = human CD33 E224A (human, UniProt P20138 18-364)
human CD33 A183S = human CD33 A183S (human, UniProt P20138 18-364)
human CD33 P174A = human CD33 P174A (human, UniProt P20138 18-364)
human CD33 T173A = human CD33 T173A (human, UniProt P20138 18-364)
human CD33 Y233A = human CD33 Y233A (human, UniProt P20138 18-364)
human CD33 P175A = human CD33 P175A (human, UniProt P20138 18-364)
human CD33 L197A = human CD33 L197A (human, UniProt P20138 18-364)
human CD33 S307A = human CD33 S307A (human, UniProt P20138 18-364)
Chain of human CD33 S307A (P20138 18-364 S307A limits assumed): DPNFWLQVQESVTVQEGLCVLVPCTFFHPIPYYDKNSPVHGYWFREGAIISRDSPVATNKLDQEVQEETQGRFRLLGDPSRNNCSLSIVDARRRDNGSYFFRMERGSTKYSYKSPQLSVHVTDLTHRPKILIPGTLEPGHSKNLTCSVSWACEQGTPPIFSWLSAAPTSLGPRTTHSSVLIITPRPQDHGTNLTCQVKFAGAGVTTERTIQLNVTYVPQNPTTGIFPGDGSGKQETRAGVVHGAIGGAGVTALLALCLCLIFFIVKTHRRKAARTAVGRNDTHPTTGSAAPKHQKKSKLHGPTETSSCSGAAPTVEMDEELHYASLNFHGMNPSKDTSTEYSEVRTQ

human CD33 I262A = human CD33 I262A (human, UniProt P20138 18-364)
Chain of human CD33 I262A (P20138 18-364 I262A limits assumed): as the sequence (P20138 18-364 S307A limits assumed) above, with I245A, A290S counted along it

human CD33 R296A = human CD33 R296A (human, UniProt P20138 18-364)
Chain of human CD33 R296A (P20138 18-364 R296A limits assumed): as the sequence (P20138 18-364 S307A limits assumed) above, with R279A, A290S counted along it

human CD33 H259A = human CD33 H259A (human, UniProt P20138 18-364)
Chain of human CD33 H259A (P20138 18-364 H259A limits assumed): as the sequence (P20138 18-364 S307A limits assumed) above, with H242A, A290S counted along it

human CD33 E252A = human CD33 E252A (human, UniProt P20138 18-364)
Chain of human CD33 E252A (P20138 18-364 E252A limits assumed): as the sequence (P20138 18-364 S307A limits assumed) above, with E235A, A290S counted along it

human CD33 G249A = human CD33 G249A (human, UniProt P20138 18-364)
Chain of human CD33 G249A (P20138 18-364 G249A limits assumed): as the sequence (P20138 18-364 S307A limits assumed) above, with G232A, A290S counted along it

human CD33 V258A = human CD33 V258A (human, UniProt P20138 18-364)
human CD33 G256A = human CD33 G256A (human, UniProt P20138 18-364)
Chain of human CD33 G256A (P20138 18-364 G256A limits assumed): as the sequence (P20138 18-364 S307A limits assumed) above, with G239A, A290S counted along it

human CD33 R254A = human CD33 R254A (human, UniProt P20138 18-364)
Chain of human CD33 R254A (P20138 18-364 R254A limits assumed): as the sequence (P20138 18-364 S307A limits assumed) above, with R237A, A290S counted along it

human CD33 G245A = human CD33 G245A (human, UniProt P20138 18-364)
Chain of human CD33 G245A (P20138 18-364 G245A limits assumed): as the sequence (P20138 18-364 S307A limits assumed) above, with G228A, A290S counted along it

human CD33 A255S = human CD33 A255S (human, UniProt P20138 18-364)
Chain of human CD33 A255S (P20138 18-364 A255S limits assumed): as the sequence (P20138 18-364 S307A limits assumed) above, with A238S, A290S counted along it

human CD33 H317A = human CD33 H317A (human, UniProt P20138 18-364)
Chain of human CD33 H317A (P20138 18-364 H317A limits assumed): as the sequence (P20138 18-364 S307A limits assumed) above, with A290S, H300A counted along it

human CD33 L316A = human CD33 L316A (human, UniProt P20138 18-364)
Chain of human CD33 L316A (P20138 18-364 L316A limits assumed): as the sequence (P20138 18-364 S307A limits assumed) above, with A290S, L299A counted along it

human CD33 R286A = human CD33 R286A (human, UniProt P20138 18-364)
human CD33 I281A = human CD33 I281A (human, UniProt P20138 18-364)
Chain of human CD33 I281A (P20138 18-364 I281A limits assumed): as the sequence (P20138 18-364 S307A limits assumed) above, with I264A, A290S counted along it

human CD33 L271A = human CD33 L271A (human, UniProt P20138 18-364)
Chain of human CD33 L271A (P20138 18-364 L271A limits assumed): as the sequence (P20138 18-364 S307A limits assumed) above, with L254A, A290S counted along it

human CD33 V231A = human CD33 V231A (human, UniProt P20138 18-364)

B3: Refmab #2 (antibody, V domains shown)
VH: QVQLVQSGAEVKKPGSSVKVSCKASGGTFSDYAISWVRQAPGQGLEWMGRIIPILGVADYAQKFQGRVTITADKSTRTAYMELSSLRSEDTAVYYCARNWADAFDIWGQGTMVTVSS
VL: DIQLTQSPSSLSASVGDRVTITCRASQGISSVLAWYQQKPGKAPKLLIYDASSLESGVPSRFSGSGSGTDFTLTISSLQPEDFATYYCQQFDSSITFGQGTKLEIK
notes: The alanine scan used IgG or Fab
Mean % WT Binding (human CD33 S307A): 112 % WT binding
Mean % WT Binding (human CD33 I262A): 115 % WT binding
Mean % WT Binding (human CD33 R296A): 111 % WT binding
Mean % WT Binding (human CD33 H259A): 109 % WT binding
Mean % WT Binding (human CD33 E252A): 116 % WT binding
Mean % WT Binding (human CD33 G249A): 127 % WT binding
Mean % WT Binding (human CD33 V258A): 111 % WT binding
Mean % WT Binding (human CD33 G256A): 117 % WT binding
Mean % WT Binding (human CD33 R254A): 118 % WT binding
Mean % WT Binding (human CD33 G245A): 112 % WT binding
Mean % WT Binding (human CD33 A255S): 109 % WT binding
Mean % WT Binding (human CD33 H317A): 99.8 % WT binding
Mean % WT Binding (human CD33 L316A): 104 % WT binding
Mean % WT Binding (human CD33 R286A): 117 % WT binding
Mean % WT Binding (human CD33 I281A): 114 % WT binding
Mean % WT Binding (human CD33 L271A): 113 % WT binding

B4: Refmab #3 (antibody, V domains shown)
VH: QVQLVQSGAEVKKPGSSVKVSCKASGYTFTDYNMHWVRQAPGQGLEWIGYIYPYNGGTGYNQKFKSKATITADESTNTAYMELSSLRSEDTAVYYCARGRPAMDYWGQGTLVTVSS
VL: DIQMTQSPSSLSASVGDRVTITCRASESVDNYGISFMNWFQQKPGKAPKLLIYAASNQGSGVPSRFSGSGSGTDFTLTISSLQPDDFATYYCQQSKEVPWTFGQGTKVEIK
notes: as for B3
Mean % WT Binding (human CD33 S307A): 60.1 % WT binding
Mean % WT Binding (human CD33 I262A): 130 % WT binding
Mean % WT Binding (human CD33 R296A): 92.9 % WT binding
Mean % WT Binding (human CD33 H259A): 104 % WT binding
Mean % WT Binding (human CD33 E252A): 96.3 % WT binding
Mean % WT Binding (human CD33 G249A): 132 % WT binding
Mean % WT Binding (human CD33 V258A): 106 % WT binding
Mean % WT Binding (human CD33 G256A): 94.9 % WT binding
Mean % WT Binding (human CD33 R254A): 88.4 % WT binding
Mean % WT Binding (human CD33 G245A): 127 % WT binding
Mean % WT Binding (human CD33 A255S): 97.7 % WT binding
Mean % WT Binding (human CD33 H317A): 157 % WT binding
Mean % WT Binding (human CD33 L316A): 90.4 % WT binding
Mean % WT Binding (human CD33 R286A): 92.4 % WT binding
Mean % WT Binding (human CD33 I281A): 91 % WT binding
Mean % WT Binding (human CD33 L271A): 135 % WT binding

B5: Refmab #1 (antibody, V domains shown)
VH: EVQLVQSGAEVKKPGSSVKVSCKASGYTITDSNIHWVRQAPGQSLEWIGYIYPYNGGTDYNQKFKNRATLTVDNPTNTAYMELSSLRSEDTAFYYCVNGNPWLAYWGQGTLVTVSS
VL: DIQLTQSPSTLSASVGDRVTITCRASESLDNYGIRFLTWFQQKPGKAPKLLMYAASNQGSGVPSRFSGSGSGTEFTLTISSLQPDDFATYYCQQTKEVPWSFGQGTKVEVK
notes: In the alanine scan antibodies were used as IgG or Fab; also called hP67.6
Mean % WT Binding (human CD33 F177A): 68.4%
Mean % WT Binding (human CD33 P203A): 103%
Mean % WT Binding (human CD33 Q236A): 89.5%
Mean % WT Binding (human CD33 V196A): 83.9%
Mean % WT Binding (human CD33 I199A): 98.5%
Mean % WT Binding (human CD33 G172A): 86%
Mean % WT Binding (human CD33 Q204A): 93.7%
Mean % WT Binding (human CD33 W179A): 93.5%
Mean % WT Binding (human CD33 V231A): 100%
Mean % WT Binding (human CD33 T240A): 111%
Mean % WT Binding (human CD33 S181A): 85.5%
Mean % WT Binding (human CD33 T211A): 82.4%
Mean % WT Binding (human CD33 T223A): 103%
Mean % WT Binding (human CD33 E224A): 95.4%
Mean % WT Binding (human CD33 A183S): 85.4%
Mean % WT Binding (human CD33 P174A): 90.9%
Mean % WT Binding (human CD33 T173A): 106%
Mean % WT Binding (human CD33 Y233A): 115%
Mean % WT Binding (human CD33 P175A): 89.4%
Mean % WT Binding (human CD33 L197A): 95.5%

The next lines start with the values.

Mean % WT Binding (human CD33 F177A): 25.4%
Mean % WT Binding (human CD33 P203A): 112%
Mean % WT Binding (human CD33 Q236A): 103%
Mean % WT Binding (human CD33 V196A): 102%
Mean % WT Binding (human CD33 I199A): 114%
Mean % WT Binding (human CD33 G172A): 90.7%
Mean % WT Binding (human CD33 Q204A): 99.8%
Mean % WT Binding (human CD33 W179A): 83.1%
Mean % WT Binding (human CD33 T240A): 76.8%
Mean % WT Binding (human CD33 S181A): 114%
Mean % WT Binding (human CD33 T211A): 79.4%
Mean % WT Binding (human CD33 T223A): 106%
Mean % WT Binding (human CD33 E224A): 107%
Mean % WT Binding (human CD33 A183S): 103%
Mean % WT Binding (human CD33 P174A): 118%
Mean % WT Binding (human CD33 T173A): 119%
Mean % WT Binding (human CD33 Y233A): 98.5%
Mean % WT Binding (human CD33 P175A): 106%
Mean % WT Binding (human CD33 L197A): 95.3%
B1: Refmab #4 (antibody, V domains shown)
VH: QVQLVQSGAEVKKPGESVKVSCKASGYTFTNYGMNWVKQAPGQGLEWMGWINTYTGEPTYADKFQGRVTMTTDTSTSTAYMEIRNLGGDDTAVYYCARWSWSDGYYVYFDYWGQGTSVTVSS
VL: DIVMTQSPDSLTVSLGERTTINCKSSQSVLDSSTNKNSLAWYQQKPGQPPKLLLSWASTRESGIPDRFSGSGSGTDFTLTIDSPQPEDSATYYCQQSAHFPITFGQGTRLEIK
notes: In the alanine scan antibodies were used as IgG or Fab

Mean % WT Binding (human CD33 S307A): 114 % WT binding
Mean % WT Binding (human CD33 I262A): 111 % WT binding
Mean % WT Binding (human CD33 R296A): 106 % WT binding
Mean % WT Binding (human CD33 H259A): 114 % WT binding
Mean % WT Binding (human CD33 E252A): 115 % WT binding
Mean % WT Binding (human CD33 G249A): 111 % WT binding
Mean % WT Binding (human CD33 V258A): 95.8 % WT binding
Mean % WT Binding (human CD33 G256A): 104 % WT binding
Mean % WT Binding (human CD33 R254A): 101 % WT binding
Mean % WT Binding (human CD33 G245A): 94.9 % WT binding
Mean % WT Binding (human CD33 A255S): 113 % WT binding
Mean % WT Binding (human CD33 H317A): 82.6 % WT binding
Mean % WT Binding (human CD33 L316A): 80 % WT binding
Mean % WT Binding (human CD33 R286A): 101 % WT binding
Mean % WT Binding (human CD33 I281A): 122 % WT binding
Mean % WT Binding (human CD33 L271A): 113 % WT binding
B2: Refmab #4 (antibody, V domains shown)
VH: B1 VH
VL: B1 VL
notes: as for B3

Mean % WT Binding (human CD33 S307A): 94.8 % WT binding
Mean % WT Binding (human CD33 I262A): 89.7 % WT binding
Mean % WT Binding (human CD33 R296A): 101 % WT binding
Mean % WT Binding (human CD33 H259A): 97.4 % WT binding
Mean % WT Binding (human CD33 E252A): 98.8 % WT binding
Mean % WT Binding (human CD33 G249A): 89.2 % WT binding
Mean % WT Binding (human CD33 V258A): 99.8 % WT binding
Mean % WT Binding (human CD33 G256A): 89.8 % WT binding
Mean % WT Binding (human CD33 R254A): 101 % WT binding
Mean % WT Binding (human CD33 G245A): 84.3 % WT binding
Mean % WT Binding (human CD33 A255S): 98.8 % WT binding
Mean % WT Binding (human CD33 H317A): 80.8 % WT binding
Mean % WT Binding (human CD33 L316A): 84.6 % WT binding
Mean % WT Binding (human CD33 R286A): 96.3 % WT binding
Mean % WT Binding (human CD33 I281A): 85 % WT binding
Mean % WT Binding (human CD33 L271A): 100 % WT binding
B6: Refmab #1 (antibody, V domains shown)
VH: B5 VH
VL: B5 VL
notes: The alanine scan used IgG or Fab; also called hP67.6

Source: US20260242735A1 (UNIVERSIT T BASEL, published 2026)
